Results on four molecules are retold here after publication PMC7000732, “Bridging non-overlapping reads illuminates high-order epistasis between distal protein sites in a GPCR” (Nature Communications, 2020).

Where “and” joins values, the source holds several entries; their conditions need not be identical. Equal values may be shown once.

For one data set, the system named is A2aR W246Y. The conditions noted are these: cited from earlier work.
Data set [1] addresses A2aR suspended in bovine striatal membranes. Also noted: method as in earlier work. The conditions noted are these: literature value; cited from earlier work.
Details of data set [2]: method as in doi:10.1016/0584-8539(95)01421-P. The settings on record: cited from earlier work.
Data set [3] in a line: FACS-based screen of A2aR library with deep sequencing (BRIDGE): variant enrichment. In kind it is cell-based, Saccharomyces cerevisiae.
Data set [4] can be described thus: Whole-cell saturation radioligand binding. Also noted: species or system Saccharomyces cerevisiae. The conditions noted are these: for CPM: raw replicate counts, empty vector not subtracted.
Data set [5] in a line: Fluorescent ligand binding measured by flow cytometry. The settings on record: for fluorescent ligand binding signal: Supplementary Figure 4 source data, replicates, listed as pYC A2a10H (Q89A). Also noted: species or system Saccharomyces cerevisiae.

Consider `CCNC(=O)[C@H]1O[C@@H](n2cnc3c(N)nc(NCCc4ccc(CCC(=O)O)cc4)nc32)[C@H](O)[C@@H]1O` [CGS21680], for which, in the data set with A2aR W246Y, the “potency of the agonist” value is recorded as “comparable to that of the wild-type receptor”.

In the case of `CCNC(=O)[C@H]1O[C@@H](n2cnc3c(N)nc(NCCc4ccc(CCC(=O)NCCNC(=S)Nc5ccc6c(c5)C(=O)OC65c6ccc(O)cc6Oc6cc(O)ccc65)cc4)nc32)[C@H](O)[C@@H]1O` [FITC-APEC], in data set [1], the Kd is 57 nM.

`O=C1OC2(c3ccc(O)cc3Oc3cc(O)ccc32)c2ccccc21` [Fluorescein]: the “pKa of the dianion” value in data set [2] is reported as 6.43.

B1: TAWLH: single-residue mutant Q89A of A2aR, positive control reported to exhibit improved binding affinity to NECA (protein, UniProt P29274 1-412, looked up, variant Q89A)
Adenosine receptor A2a: MPIMGSSVYITVELAIAVLAILGNVLVCWAVWLNSNLQNVTNYFVVSLAAADIAVGVLAIPFAITISTGFCAACHGCLFIACFVLVLTASSIFSLLAIAIDRYIAIRIPLRYNGLVTGTRAKGIIAICWVLSFAIGLTPMLGWNNCGQPKEGKNHSQGCGEGQVACLFEDVVPMNYMVYFNFFACVLVPLLLMLGVYLRIFLAARRQLKQMESQPLPGERARSTLQKEVHAAKSLAIIVGLFALCWLPLHIINCFTFFCPDCSHAPLWLMYLAIVLSHTNSVVNPFIYAYRIREFRQTFRKIIRSHVLRQQEPFKAAGTSARVLAAHGSDGEQVSLRLNGHPPGVWANGSAPHPERRPNGYALGLVSGGSAQESQGNTGLPDVELLSHELKGVCPEPPGLDDPLAQDGAGVS
modifications: decahistidine tag
Consider B1, for which the Enrichment rate in data set [3] (naive to PS4 library (PS4/naive), high-stringency gating, 10 µM FITC-APEC) is given as 149; in data set [3] (naive to PS4 population), 149 fold. The “Fold increase in enrichment rate over WT” value in data set [3] (naive to PS4 library, WT rate 0.30) was 497 fold. In data set [4] (3H-NECA, whole yeast cells, pH 5.8, mean ± SD of three biological replicates, read-out: equilibrium dissociation constant (Kd)), the Kd worked out at 9.9 ± 0.4 nM. Further, the CPM was 224 CPM and 211 CPM and 240 CPM in data set [4] ([3H-NECA] 1.6 nM); 450 CPM and 470 CPM and 429 CPM in data set [4] ([3H-NECA] 3.1 nM); 719 CPM and 702 CPM and 640 CPM in data set [4] ([3H-NECA] 6.3 nM); 1084 CPM and 978 CPM and 892 CPM in data set [4] ([3H-NECA] 12.5 nM); 1238 CPM and 1266 CPM and 1270 CPM in data set [4] ([3H-NECA] 25 nM); 1460 CPM and 1383 CPM and 1357 CPM in data set [4] ([3H-NECA] 50 nM). In addition, the CPM was 1834 CPM and 1782 CPM and 1547 CPM in data set [4] ([3H-NECA] 100 nM); 2245 CPM and 2197 CPM and 2158 CPM in data set [4] ([3H-NECA] 200 nM); 2884 CPM and 2262 CPM and 2852 CPM in data set [4] ([3H-NECA] 400 nM). The “fold greater 3H-NECA binding affinity than wild-type receptor” value in data set [4] (ratio of Kd to wild-type) is “fourfold”. In addition, in data set [5] (FITC-APEC, yeast cells), the “fluorescent ligand binding, result in words” value is reported as “improved binding affinity”. Also, the “fluorescent ligand binding signal” value in data set [5] ([FITC-APEC] 10 nM) is 102 and 104 and 101; in data set [5] ([FITC-APEC] 100 nM), 132 and 133 and 147; in data set [5] ([FITC-APEC] 1000 nM), 298 and 308 and 303; in data set [5] ([FITC-APEC] 10000 nM), 368 and 357 and 377; in data set [5] ([FITC-APEC] 50000 nM) it was 430 and 460 and 408.
